Results reported in US20050118674A1, “Engineering of Controlled Deamidation Rates in Peptides, Proteins, and Similar Structures” (priority 2003, published 2005).
Where no end group is shown, it is not given here.

assay: First-order nonenzymatic deamidation of pentapeptides in Tris buffer; format: physicochemical; settings: pH 7.4, 37.0° C., 0.15 M Tris HCl; Asn pentapeptides
Method in brief: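 Pentapeptides containing Asn or Gln in varied flanking sequences incubated at 37° C., pH 7.4, 0.15 M Tris buffer; first-order deamidation rates measured. Some Asn values estimated from remaining data; many Gln values derived from surface fitting rather than measured.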

Substance | First-Order Deamidation Halftimes of GlyXxxAsnYyyGly [days]
GlyIleAsnAspGly (GINDG; printed: GlyIleAsnAspGly) | 33.8
GlyThrAsnTyrGly (GTNYG; printed: GlyThrAsnTyrGly) | 80.6
GlyMetAsnTyrGly (GMNYG; printed: GlyMetAsnTyrGly) | 74.0
GlyThrAsnAmCysGly | 34.4
GlyTyrAsnAmCysGly | 33.3
GlyCysAsnHisGly (GCNHG; printed: GlyCysAsnHisGly) | 10.8
GlyGlyAsnGlyGly (GGNGG; printed: GlyGlyAsnGlyGly) | 1.03
GlyAspAsnSerGly (GDNSG; printed: GlyAspAsnSerGly) | 17.0
GlyIleAsnLeuGly (GINLG; printed: GlyIleAsnLeuGly) | 154
GlyValAsnTrpGly (GVNWG; printed: GlyValAsnTrpGly) | 88.9
GlyMetAsnSerGly (GMNSG; printed: GlyMetAsnSerGly) | 15.2
GlyAspAsnValGly (GDNVG; printed: GlyAspAsnValGly) | 241
GlyGluAsnAmCysGly | 32.1
GlyLeuAsnTyrGly (GLNYG; printed: GlyLeuAsnTyrGly) | 75.7
GlySerAsnLeuGly (GSNLG; printed: GlySerAsnLeuGly) | 110
GlyCysAsnAlaGly (GCNAG; printed: GlyCysAsnAlaGly) | 26.4
GlySerAsnPheGly (GSNFG; printed: GlySerAsnPheGly) | 52.2
GlyHisAsnGlyGly (GHNGG; printed: GlyHisAsnGlyGly) | 1.14
GlyProAsnGlyGly (GPNGG; printed: GlyProAsnGlyGly) | 1.18
GlyValAsnAlaGly (GVNAG; printed: GlyValAsnAlaGly) | 27.5
GlyLysAsnLeuGly (GKNLG; printed: GlyLysAsnLeuGly) | 119
GlyAmCysAsnLeuGly (CNLG; not fully specified (N-terminus); printed as GlyAmCysAsnLeuGly) | 100

Substance | First-Order Deamidation Halftimes of GlyXxxAsnYyyGly [days]
GlyProAsnTrpGly (GPNWG; printed: GlyProAsnTrpGly) | 122
GlyAmCysAsnTrpGly (CNWG; not fully specified (N-terminus); printed as GlyAmCysAsnTrpGly) | 81.3
GlyIleAsnValGly (GINVG; printed: GlyIleAsnValGly) | 295
GlyPheAsnGluGly (GFNEG; printed: GlyPheAsnGluGly) | 62.4
GlyValAsnIleGly (GVNIG; printed: GlyValAsnIleGly) | 366
GlySerAsnGlyGly (GSNGG; printed: GlySerAsnGlyGly) | 0.96
GlyLeuAsnMetGly (GLNMG; printed: GlyLeuAsnMetGly) | 62.6
GlyAmCysAsnLysGly (CNKG; not fully specified (N-terminus); printed as GlyAmCysAsnLysGly) | 48.9
GlyTyrAsnTyrGly (GYNYG; printed: GlyTyrAsnTyrGly) | 70.6
GlyAlaAsnMetGly (GANMG; printed: GlyAlaAsnMetGly) | 59.2
GlyAspAsnPheGly (GDNFG; printed: GlyAspAsnPheGly) | 70.1
GlyProAsnArgGly (GPNRG; printed: GlyProAsnArgGly) | 72.9
GlyHisAsnGluGly (GHNEG; printed: GlyHisAsnGluGly) | 69.4
GlyValAsnThrGly (GVNTG; printed: GlyValAsnThrGly) | 49.9
GlyTyrAsnLeuGly (GYNLG; printed: GlyTyrAsnLeuGly) | 118
GlyValAsnCysGly (GVNCG; printed: GlyValAsnCysGly) | 63.2
GlyHisAsnValGly (GHNVG; printed: GlyHisAsnValGly) | 247
GlyIleAsnLysGly (GINKG; printed: GlyIleAsnLysGly) | 64.4
GlyCysAsnValGly (GCNVG; printed: GlyCysAsnValGly) | 229
GlyAmCysAsnHisGly (CNHG; not fully specified (N-terminus); printed as GlyAmCysAsnHisGly) | 10.9
GlyPheAsnGlyGly (GFNGG; printed: GlyPheAsnGlyGly) | 1.15
GlyHisAsnAspGly (GHNDG; printed: GlyHisAsnAspGly) | 31.2

same assay, conditions: pH 7.4, 37.0 ° C., 0.15 M Tris HCl; Gln pentapeptides; 52 values measured, rest derived from surface fitting

Substance | First-Order Deamidation Halftimes of GlyXxxGlnYyyGly [days]
GlyAspGlnGluGly (GDQEG; printed: GlyAspGlnGluGly) | 8200
GlyHisGlnGlyGly (GHQGG; printed: GlyHisGlnGlyGly) | 850
GlyArgGlnCysGly (GRQCG; printed: GlyArgGlnCysGly) | 1000
GlyLeuGlnAlaGly (GLQAG; printed: GlyLeuGlnAlaGly) | 6000
GlyThrGlnGluGly (GTQEG; printed: GlyThrGlnGluGly) | 5900
GlySerGlnPheGly (GSQFG; printed: GlySerGlnPheGly) | 8300
GlyProGlnGluGly (GPQEG; printed: GlyProGlnGluGly) | 6800
GlyHisGlnProGly (GHQPG; printed: GlyHisGlnProGly) | 11000
GlyPheGlnThrGly (GFQTG; printed: GlyPheGlnThrGly) | 5300
GlyValGlnIleGly (GVQIG; printed: GlyValGlnIleGly) | 5600
GlyGluGlnAlaGly (GEQAG; printed: GlyGluGlnAlaGly) | 7100
GlyLysGlnGluGly (GKQEG; printed: GlyLysGlnGluGly) | 5400
GlyAlaGlnMetGly (GAQMG; printed: GlyAlaGlnMetGly) | 4400
GlyTyrGlnArgGly (GYQRG; printed: GlyTyrGlnArgGly) | 8100
GlyLeuGlnSerGly (GLQSG; printed: GlyLeuGlnSerGly) | 5800
GlyProGlnIleGly (GPQIG; printed: GlyProGlnIleGly) | 6000
GlyCysGlnIleGly (GCQIG; printed: GlyCysGlnIleGly) | 4900
GlyTyrGlnGlyGly (GYQGG; printed: GlyTyrGlnGlyGly) | 850

Substance | First-Order Deamidation Halftimes of GlyXxxGlnYyyGly [days]
GlyCysGlnAlaGly (GCQAG; printed: GlyCysGlnAlaGly) | 4100
GlyPheGlnProGly (GFQPG; printed: GlyPheGlnProGly) | 10000
GlyArgGlnSerGly (GRQSG; printed: GlyArgGlnSerGly) | 4300
GlyMetGlnCysGly (GMQCG; printed: GlyMetGlnCysGly) | 900
GlyIleGlnMetGly (GIQMG; printed: GlyIleGlnMetGly) | 5100
GlyCysGlnTrpGly (GCQWG; printed: GlyCysGlnTrpGly) | 9100
GlyHisGlnValGly (GHQVG; printed: GlyHisGlnValGly) | 6800
GlyLysGlnLeuGly (GKQLG; printed: GlyLysGlnLeuGly) | 5300
GlyGluGlnGlyGly (GEQGG; printed: GlyGluGlnGlyGly) | 750
GlyLeuGlnArgGly (GLQRG; printed: GlyLeuGlnArgGly) | 7200
GlyTyrGlnTyrGly (GYQYG; printed: GlyTyrGlnTyrGly) | 14000
GlyThrGlnPheGly (GTQFG; printed: GlyThrGlnPheGly) | 6800
GlyPheGlnHisGly (GFQHG; printed: GlyPheGlnHisGly) | 6200
GlyArgGlnThrGly (GRQTG; printed: GlyArgGlnThrGly) | 4200
GlyTyrGlnLeuGly (GYQLG; printed: GlyTyrGlnLeuGly) | 7800
GlyGluGlnHisGly (GEQHG; printed: GlyGluGlnHisGly) | 2500
GlyGlyGlnArgGly (GGQRG; printed: GlyGlyGlnArgGly) | 7200
